First the molecules themselves.
B1: Amer1-A2 (human, residues 380–531), two-hybrid prey [human] / pBTM-APC–ARM (residues 308–789), two-hybrid bait [human] (parent complex)
chain 1: EEEEEEEEVELEEEEEEVKEEEEDDDLEYLWETAQMYPRPNMNLGYHPTTSPGHHGYMLLDPVRSYPGLAPGELLTPQSDQQESAPNSDEGYYDSTTPGFEDDSGEALGLVRRDCLPRDSYSGDALYEFYEPDDSLENSPPGDDCLYDLHGR
chain 2: LGTKVEMVYSLLSMLGTHDKDDMSRTLLAMSSSQDSCISMRQSGCLPLLIQLLHGNDKDSVLLGNSRGSKEARARASAALHNIIHSQPDDKRGRREIRVLHLLEQIRAYCETCWEWQEAHEPGMDQDKNPMPAPVEHQICPAVCVLMKLSFDEEHRHAMNELGGLQAIAELLQVDCEMYGLTNDHYSITLRRYAGMALTNLTFGDVANKATLCSMKGCMRALVAQLKSESEDLQQVIASVLRNLSWRADVNSKKTLREVGSVKALMECALEVKKESTLKSVLSALWNLSAHCTENKADICAVDGALAFLVGTLTYRSQTNTLAIIESGGGILRNVSSLIATNEDHRQILRENNCLQTLLQHLKSHSLTIVSNACGTLWNLSARNPKDQEALWDMGAVSMLKNLIHSKHKMIAMGSAAALRNLMANRPAKYKDANIMSPGSSLPSLHVRKQKALEAELDAQHLSETFDNIDNLSPKASHRSKQ
B2: Amer1-A1 (human, residues 280–369), two-hybrid prey [human] / pBTM-APC–ARM (residues 308–789), two-hybrid bait [human] (parent complex)
chain 1: SLEEPHSPETGEKVVAGEVNPPNGPVGDPLSLLFGDVTSLKSFDSLTGCGDIIAEQDMDSMTDSMASGGQRANRDGTKRSSCLVTYQGGG
chain 2: B1 chain 2
B3: Amer1-A4 (human, residues 337–455), two-hybrid prey [human] / pBTM-APC–ARM (residues 308–789), two-hybrid bait [human] (parent complex)
chain 1: MDSMTDSMASGGQRANRDGTKRSSCLVTYQGGGEEMALPDDDDEEEEEEEEVELEEEEEEVKEEEEDDDLEYLWETAQMYPRPNMNLGYHPTTSPGHHGYMLLDPVRSYPGLAPGELLT
chain 2: B1 chain 2
B4: pBTM-APC–ARM (residues 308–789), two-hybrid bait [human] / Amer1-A2 (murine, residues 388–551), two-hybrid prey [murine] (parent complex)
chain 1: B1 chain 2
chain 2: EEEEEEEEEEEEEEEEEEEEEELLEDEEEVKDGEENDDLEYLWASAQIYPRFNMNLGYHTAISPSHQGYMLLDPVQSYPNLGLGELLTPQSDQQESAPNSDEGYYDSTTPGFEDDSGEALGLAHRDCLPRDSYSGDALYEFYEPDDSLEHSPPGDDCLYDLRGR

The variants in one test derive from B1. In words: yeast two-hybrid assay (relative β-galactosidase reporter activity); parent: 100.
Consider chain 1 D124K, for which the percent of parent was 0.17%. Turning to chain 1 D119K, the percent of parent was 0.28%.

A further test covers variants of B2. Described as above.
For the variant chain 1 T47R, the percent of parent was 65.2%. Turning to chain 1 D51K, the percent of parent turned out to be 0%.

On to chain 1 D44K, for which the percent of parent was 31.9%.

Another test covers variants of B3. Described as above.
For the variant chain 1 E34K, the percent of parent was determined as 0.85%.

In the next test the parent is B4. The test is described as above.
Consider chain 1 R242E, for which the percent of parent was 0.06%. Take chain 1 N200K: the percent of parent is 0.33%. Turning to chain 1 K209E, the percent of parent amounted to 0.27%. Consider chain 1 M410K, for which the percent of parent is 87.8%. Still for that read-out and setting: as for chain 1 N243K, the figure is 0.12%. Still for that read-out and setting: as for chain 1 R420E, the figure is 75.2%.

These data come from paper PMC4860839, “Structures of the APC–ARM domain in complexes with discrete Amer1/WTX fragments reveal that it uses a consensus mode to recognize its binding partners” (Cell Discovery, 2015).
